Target: the molecule itself
Assay: crystal structure

B1: hRIO2(1-321) (domain or fragment, human, UniProt Q9BVS4 1-321, looked up)
chain: MGKVNVAKLRYMSRDDFRVLTAVEMGMKNHEIVPGSLIASIASLKHGGCNKVLRELVKHKLIAWERTKTVQGYRLTNAGYDYLALKTLSSRQVVESVGNQMGVGKESDIYIVANEEGQQFALKLHRLGRTSFRNLKNKRDYHKHRHNVSWLYLSRLSAMKEFAYMKALYERKFPVPKPIDYNRHAVVMELINGYPLCQIHHVEDPASVYDEAMELIVKLANHGLIHGDFNEFNLILDESDHITMIDFPQMVSTSHPNAEWYFDRDVKCIKDFFMKRFSYESELFPTFKDIRREDTLDVEVSASGYTKEMQADDELLHPLGP
B1: binds.

Reference: paper doi:10.1101/553800 (bioRxiv, 2019)
